Experimental data: publication PMC12589613

Assays:
Assay in all cases: single-molecule TIRF
MDA5(Q57E) (human) = conditions: biotin on annealed RNA linkers 1 and 2; smTIRF imaging buffer, salt, pH and temperature not given in the material; proteins 3-100 nM, with or without ATP or ADPCP
MDA5ΔN (human) = conditions: biotin on annealed RNA linkers 1 and 2; smTIRF imaging buffer, salt, pH and temperature not given in the material; proteins 3-100 nM, with or without ATP or ADPCP
MDA5 (human) = conditions: biotin on annealed RNA linkers 1 and 2, smTIRF imaging buffer, salt, pH and temperature not given in the material, proteins 3-100 nM, with or without ATP or ADPCP

11.6-kb dsRNA showed a binding signal (frequency of static binding) (MDA5(Q57E) (human)) of 0.086, a binding signal (frequency of translocation) (MDA5(Q57E) (human)) of 0.527 and a binding signal (frequency of static binding) (MDA5ΔN (human)) of 0.105. It also gave a binding signal (frequency of translocation) (MDA5ΔN (human)) of 1.42, a binding signal (frequency of static binding) (MDA5 (human); ADPCP, translocation 0) of 0.337 and a binding signal (frequency of static binding) (MDA5 (human)) of 0.022. For the same substance, the binding signal (frequency of translocation) (MDA5 (human)) was 0.114 and the binding signal (frequency of static binding) (MDA5 (human); no ATP, translocation 0) was 0.136.
